Measured values published in patent publication US20190153066A1 (IMMATICS BIOTECHNOLOGIES, published 2019).
No end group written: not given here.

The binders below were run against T1, HLA-A*02:01 (peptide-receptive MHC class I molecule after UV-ligand exchange) (human) (assay: UV-ligand exchange, anti-b2m ELISA; peptide exchange yield grade (>10% = +; >20% = ++; >50 = +++; >75% = ++++)).
T1 construct: monomers captured on streptavidin-coated plates; also called peptide-receptive MHC molecules; MHC monomers
Description: Candidate peptides for T cell based therapies according to the present invention were further tested for their MHC binding capacity (affinity). The individual peptide-MHC complexes were produced by UV-ligand exchange, where a UV-sensitive peptide is cleaved upon UV-irradiation, and exchanged with the peptide of interest as analyzed. Only peptide candidates that can effectively bind and stabilize the peptide-receptive MHC molecules prevent dissociation of the MHC complexes. To determine the yield of the exchange reaction, an ELISA was performed based on the detection of the light chain (β2m) of stabilized MHC complexes. The assay was performed as generally described in Rodenko et al. (Rodenko et al., 2006).
96 well MAXISorp plates (NUNC) were coated over night with 2 ug/ml streptavidin in PBS at room temperature, washed 4× and blocked for1 h at 37° C. in 2% BSA containing blocking buffer. Refolded HLA-A*02:01/MLA-001 monomers served as standards, covering the range of 15-500 ng/ml. Peptide-MHC monomers of the UV-exchange reaction were diluted 100-fold in blocking buffer. Samples were incubated for 1 h at 37° C., washed four times, incubated with 2 ug/ml HRP conjugated anti-β2 m for 1 h at 37° C., washed again and detected with TMB solution that is stopped with […]. Absorption was measured at 450 nm. Candidate peptides that show a high exchange yield (preferably higher than 50%, most preferred higher than 75%) are generally preferred for a generation and production of antibodies or fragments thereof, and/or T cell receptors or fragments thereof, as they show sufficient avidity to the MHC molecules and prevent dissociation of the MHC complexes.
YAAEIASAL (also: trifluoroacetate salt) [peptide YAAEIASAL (SEQ ID NO: 1)] gave a peptide exchange yield of 50 to 75%. SAFPFPVTVSL [peptide SAFPFPVTVSL (SEQ ID NO: 10)] was tested, and the peptide exchange yield was 20 to 50%. SIIDFTVTM [peptide SIIDFTVTM (SEQ ID NO: 11)] gave a peptide exchange yield greater than 75%. TILPGNLQSW [peptide TILPGNLQSW (SEQ ID NO: 12)] was tested, and the peptide exchange yield was 10 to 20%. VLPRAFTYV [peptide VLPRAFTYV (SEQ ID NO: 13)] showed a peptide exchange yield greater than 75%. Binder YGIEFVVGV [peptide YGIEFVVGV (SEQ ID NO: 14)] has a peptide exchange yield greater than 75%. SVIDSLPEI [peptide SVIDSLPEI (SEQ ID NO: 15)] gave a peptide exchange yield greater than 75%. With AVMTDLPVI [peptide AVMTDLPVI (SEQ ID NO: 16)] the peptide exchange yield was greater than 75%. VLYDNTQLQL [peptide VLYDNTQLQL (SEQ ID NO: 17)] showed a peptide exchange yield greater than 75%. For SLSPDLSQV [peptide SLSPDLSQV (SEQ ID NO: 18)], the peptide exchange yield was 50 to 75%. In the case of TAYPQVVVV [peptide TAYPQVVVV (SEQ ID NO: 19)], the peptide exchange yield is reported as 20 to 50%. In the case of AAYPEIVAV [peptide AAYPEIVAV (SEQ ID NO: 2)], the peptide exchange yield is reported as 50 to 75%. VLQDELPQL [peptide VLQDELPQL (SEQ ID NO: 20)] was tested, and the peptide exchange yield was greater than 75%. Binder IAFPTSISV [peptide IAFPTSISV (SEQ ID NO: 21)] has a peptide exchange yield of 50 to 75%. Binder SAFGFPVIL [peptide SAFGFPVIL (SEQ ID NO: 22)] has a peptide exchange yield of 20 to 50%. Work on SLLSELLGV [peptide SLLSELLGV (SEQ ID NO: 23)] yielded a peptide exchange yield greater than 75%. ISAPLVKTL [peptide ISAPLVKTL (SEQ ID NO: 24)] showed a peptide exchange yield of 10 to 20%. Work on NLSETASTMAL [peptide NLSETASTMAL (SEQ ID NO: 25)] yielded a peptide exchange yield greater than 75%. With TAQTLVRIL [peptide TAQTLVRIL (SEQ ID NO: 26)] the peptide exchange yield was 10 to 20%. ALAEQVQKA [peptide ALAEQVQKA (SEQ ID NO: 27)] was tested, and the peptide exchange yield was 50 to 75%. In the case of YASGSSASL [peptide YASGSSASL (SEQ ID NO: 28)], the peptide exchange yield is reported as 10 to 20%. Binder FASEVSNVL [peptide FASEVSNVL (SEQ ID NO: 29)] has a peptide exchange yield greater than 75%. In the case of EMDSTVITV [peptide EMDSTVITV (SEQ ID NO: 3)], the peptide exchange yield is reported as 50 to 75%. With FASGLIHRV [peptide FASGLIHRV (SEQ ID NO: 30)] the peptide exchange yield was 50 to 75%. IAIPFLIKL [peptide IAIPFLIKL (SEQ ID NO: 31)] showed a peptide exchange yield greater than 75%. For YVISQVFEI [peptide YVISQVFEI (SEQ ID NO: 32)], the peptide exchange yield was greater than 75%. With FLLEAQNYL [peptide FLLEAQNYL (SEQ ID NO: 4)] the peptide exchange yield was greater than 75%. GLIDEVMVLL [peptide GLIDEVMVLL (SEQ ID NO: 5)] showed a peptide exchange yield greater than 75%. In the case of LLLPLLPPLSPS (also: trifluoroacetate salt) [peptide LLLPLLPPLSPS (SEQ ID NO: 6)], the peptide exchange yield is reported as greater than 75%. Binder LLLSDPDKVTI [peptide LLLSDPDKVTI (SEQ ID NO: 7)] has a peptide exchange yield greater than 75%. LSASLVRIL [peptide LSASLVRIL (SEQ ID NO: 8)] showed a peptide exchange yield of 10 to 20%. For RLAKLTAAV [peptide RLAKLTAAV (SEQ ID NO: 9)], the peptide exchange yield was greater than 75%.
